Test system: T1, GAF (GAGA-binding factor), His-GAF (Drosophila melanogaster), Q08605-2
T1 sequence: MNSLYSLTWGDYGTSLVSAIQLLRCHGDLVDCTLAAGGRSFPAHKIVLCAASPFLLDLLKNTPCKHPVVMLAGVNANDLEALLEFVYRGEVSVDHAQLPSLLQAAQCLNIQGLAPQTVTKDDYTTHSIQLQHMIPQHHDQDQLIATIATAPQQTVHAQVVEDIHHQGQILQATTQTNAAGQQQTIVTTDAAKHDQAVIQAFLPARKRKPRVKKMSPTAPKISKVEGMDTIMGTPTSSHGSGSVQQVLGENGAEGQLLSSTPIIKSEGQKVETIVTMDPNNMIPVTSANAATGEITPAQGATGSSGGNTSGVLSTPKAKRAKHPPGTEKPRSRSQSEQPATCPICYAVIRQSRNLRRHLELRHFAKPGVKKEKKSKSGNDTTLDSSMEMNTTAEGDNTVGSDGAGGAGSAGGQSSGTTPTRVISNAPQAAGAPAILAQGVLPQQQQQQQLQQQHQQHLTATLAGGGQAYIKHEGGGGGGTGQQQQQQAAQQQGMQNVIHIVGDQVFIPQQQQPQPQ
Experiment: EMSA
Settings: GAF: band shift buffer of cited ref 25 (composition not given), poly(dI-dC) 10 ng, 4.5% acrylamide Tris/borate/EDTA gel; HSF: 10 ug extract protein, as in ref …

CTGTTCTCGTTGCTTCGAGAGAGCGCGCCTCGAATGTTCGCGAAAAGAGCGCCGGAGTATAAATAGAGGAGCTTCGTCGACGGAGAGTCAA (double strand) [hsp70Aa promoter PCR fragment]
binding: binds

Reference: publication PMC4336284
